# Assay results taken from PMC5849677.
# pKd: −log10 of the molar value.
# What was measured:
# [1] = molecular target: native hC3d purified from human serum (human); test: SPR; Biacore; hC3d or C3d(g)-Fc fusions immobilised by amine coupling (94.3-96.2 RU); Fc-fusion analytes 0.195-50 nM in HBS-EP+, physiological salt, 360 s injection; steady state affinity model; apparent KD
# [2] = molecular target: hC3d,g (s)-Fc (Cys to Ser variant of hC3dg-Fc) (human) (UniProt P01024); test: as above
substance,measurement,setting,value
hCR2 (SCR1-4)-Fc (from UniProt P20023 21-273) (Fc fusion),pKd,[1],7.97
same,pKd,[2],8.59
